Measured values: patent publication US20120137392A1

Target: eJMC^Y859A (eJMC mutated in the first amino acid of the YXXΦ sequence) fused to GFP (Arabidopsis thaliana), Q9FL28
Experiment: cell-based or functional assay

eJMC^Y859A (eJMC mutated in the first amino acid of the YXXΦ sequence) fused to GFP (Arabidopsis thaliana), Q9FL28, sequence (Q9FL28 other isoform, or with tags, fused parts or gaps Y859A Y859A): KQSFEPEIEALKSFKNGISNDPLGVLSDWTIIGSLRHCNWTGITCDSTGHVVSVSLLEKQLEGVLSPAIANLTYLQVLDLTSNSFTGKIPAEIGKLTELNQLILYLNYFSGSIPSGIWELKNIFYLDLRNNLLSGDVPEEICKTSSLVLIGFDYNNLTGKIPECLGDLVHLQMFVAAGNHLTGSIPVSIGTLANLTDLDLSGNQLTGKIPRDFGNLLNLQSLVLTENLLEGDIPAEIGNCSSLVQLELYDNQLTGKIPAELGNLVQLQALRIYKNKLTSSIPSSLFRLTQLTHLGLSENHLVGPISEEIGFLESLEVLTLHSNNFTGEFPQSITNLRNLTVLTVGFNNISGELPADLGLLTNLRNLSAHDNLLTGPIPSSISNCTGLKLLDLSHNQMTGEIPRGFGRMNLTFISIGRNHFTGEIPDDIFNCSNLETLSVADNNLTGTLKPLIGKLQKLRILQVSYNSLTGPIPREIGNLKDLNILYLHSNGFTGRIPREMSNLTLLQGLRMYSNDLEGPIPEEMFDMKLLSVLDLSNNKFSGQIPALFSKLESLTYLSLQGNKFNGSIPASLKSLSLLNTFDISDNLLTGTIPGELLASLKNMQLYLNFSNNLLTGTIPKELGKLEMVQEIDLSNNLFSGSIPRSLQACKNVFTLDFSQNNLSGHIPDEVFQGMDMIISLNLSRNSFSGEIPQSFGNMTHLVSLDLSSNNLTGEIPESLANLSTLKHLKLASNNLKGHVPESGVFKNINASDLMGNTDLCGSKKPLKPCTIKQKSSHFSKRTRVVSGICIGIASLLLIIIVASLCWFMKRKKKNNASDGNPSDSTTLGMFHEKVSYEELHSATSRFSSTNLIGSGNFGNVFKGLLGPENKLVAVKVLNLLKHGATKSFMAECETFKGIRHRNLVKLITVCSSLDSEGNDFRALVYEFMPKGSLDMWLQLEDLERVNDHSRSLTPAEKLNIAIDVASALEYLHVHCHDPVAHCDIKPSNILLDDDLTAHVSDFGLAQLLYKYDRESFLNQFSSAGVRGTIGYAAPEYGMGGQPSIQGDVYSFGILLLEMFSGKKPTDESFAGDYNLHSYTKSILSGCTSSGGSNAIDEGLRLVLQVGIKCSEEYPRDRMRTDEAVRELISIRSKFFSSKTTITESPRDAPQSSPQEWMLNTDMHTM

QRLSTGSRINSAKDDAAGLQIA [flg22 (peptide derived from bacterial flagellin)] gave an ethylene accumulation, agroinfiltrated tobacco leaf explants, against the negative control of 4.8 times.
